For the data set, the system named is T1, PhoB (Bacteroides fragilis YCH46), ORF:3d02aa67.
T1 sequence: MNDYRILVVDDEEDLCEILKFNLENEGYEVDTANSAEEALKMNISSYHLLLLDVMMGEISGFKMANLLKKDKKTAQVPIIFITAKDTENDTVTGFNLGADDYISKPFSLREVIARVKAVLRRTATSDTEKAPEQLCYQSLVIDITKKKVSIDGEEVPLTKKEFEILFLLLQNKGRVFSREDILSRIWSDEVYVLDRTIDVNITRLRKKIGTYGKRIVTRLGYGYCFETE
In words: EMSA. To be noted: EMSA: 50 mM Tris-HCl pH 7.5, 50 mM KCl, 10 mM MgCl2, 0.5 mM EDTA, 30 min at 25 C; 5% polyacrylamide gel. PS B and PS E promoter fragments (S55/S56, S57/S58 …).

The results in this text go back to paper PMC3547664.

Take “GGAATGGCTGGTAATCAAGTGCCTTGACTGCATCTGCATTGGCTTCTCCGTATTGAAATGATGGAGCAGCATAAGTGACTTGGCATTGAACTCCTGTAACATAATCCGGATTTTCTCCATTAAGATTATATTTAAGAGGTACGTTGGACGATGTGAAGATTAACGACGTCAACGAAGTAGTACCTGTTCCACCGAAAATATTGCCGGTAGCATAAGGTACTTCTATATCGTCGTTATCCGATGCCACTTTGATAAACTTAATATCGATGCGTGATACAATGCGTTCCAGA (double strand) [BF3397 internal fragment]”: the binding entry is reported as “no binding”.
